Literature values in paper PMC7600996.
pKd: −log10 of the molar value.

Target: RseA (Escherichia coli) (UniProt P0AFX7)
UniProt P0AFX7, sequence (P0AFX7 whole entry): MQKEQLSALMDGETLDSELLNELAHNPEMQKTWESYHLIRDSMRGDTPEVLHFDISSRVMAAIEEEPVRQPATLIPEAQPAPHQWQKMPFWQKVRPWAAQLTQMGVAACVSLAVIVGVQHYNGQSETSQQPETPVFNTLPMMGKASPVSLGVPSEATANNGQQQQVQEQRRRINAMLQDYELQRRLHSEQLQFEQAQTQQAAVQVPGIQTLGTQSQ

pKd: 9.70
Substance: RpoE (sigma E) (from UniProt P0AGB6)
